Laboratory results published in article PMC5216914.
Where two headings read alike, the source gives them in different places.

Question: Which enzymatic_activity (phosphorylation at Y416) does the source give for cSrc: Y416F here?
Answer: The enzymatic_activity was “abolishes”.

Question: For cSrc: Y527F, which enzymatic_activity (phosphorylation at Y527) is on record?
Answer: The enzymatic_activity was “increases”.
